Source: patent US20030044899A1

Molecular target: integrin α3β1 (human) (UniProt P26006)
Test: cell-based or functional assay

Sequence of UniProt P26006 (P26006 33-1051, chain 1 of 2): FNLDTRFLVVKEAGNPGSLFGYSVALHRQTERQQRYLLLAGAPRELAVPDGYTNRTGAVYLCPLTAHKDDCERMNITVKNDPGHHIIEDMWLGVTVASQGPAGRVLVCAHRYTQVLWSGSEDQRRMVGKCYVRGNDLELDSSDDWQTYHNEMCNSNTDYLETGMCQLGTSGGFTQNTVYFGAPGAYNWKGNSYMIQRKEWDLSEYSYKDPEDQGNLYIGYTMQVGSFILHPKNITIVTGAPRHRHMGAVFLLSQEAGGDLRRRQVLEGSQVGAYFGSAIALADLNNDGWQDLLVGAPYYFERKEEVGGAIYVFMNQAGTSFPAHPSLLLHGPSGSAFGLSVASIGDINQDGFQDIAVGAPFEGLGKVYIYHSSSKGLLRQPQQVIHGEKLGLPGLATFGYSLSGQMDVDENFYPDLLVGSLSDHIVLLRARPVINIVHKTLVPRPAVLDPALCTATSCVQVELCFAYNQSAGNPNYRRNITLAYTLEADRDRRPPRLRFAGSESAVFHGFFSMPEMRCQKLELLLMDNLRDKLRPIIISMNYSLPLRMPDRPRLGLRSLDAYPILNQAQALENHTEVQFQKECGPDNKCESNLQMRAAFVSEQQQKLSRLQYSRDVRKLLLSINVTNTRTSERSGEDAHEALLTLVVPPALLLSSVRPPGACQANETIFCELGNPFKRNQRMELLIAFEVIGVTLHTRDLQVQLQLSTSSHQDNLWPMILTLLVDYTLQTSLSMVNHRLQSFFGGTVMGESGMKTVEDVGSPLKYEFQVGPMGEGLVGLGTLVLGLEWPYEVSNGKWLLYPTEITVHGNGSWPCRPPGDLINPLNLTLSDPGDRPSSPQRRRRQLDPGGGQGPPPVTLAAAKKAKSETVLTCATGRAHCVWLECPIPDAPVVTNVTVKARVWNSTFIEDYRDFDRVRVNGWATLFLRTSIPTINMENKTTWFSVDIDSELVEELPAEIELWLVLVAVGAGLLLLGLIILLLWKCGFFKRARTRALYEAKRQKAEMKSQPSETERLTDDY
Sequence of UniProt P26006 (P05556 21-798, chain 2 of 2, further chain): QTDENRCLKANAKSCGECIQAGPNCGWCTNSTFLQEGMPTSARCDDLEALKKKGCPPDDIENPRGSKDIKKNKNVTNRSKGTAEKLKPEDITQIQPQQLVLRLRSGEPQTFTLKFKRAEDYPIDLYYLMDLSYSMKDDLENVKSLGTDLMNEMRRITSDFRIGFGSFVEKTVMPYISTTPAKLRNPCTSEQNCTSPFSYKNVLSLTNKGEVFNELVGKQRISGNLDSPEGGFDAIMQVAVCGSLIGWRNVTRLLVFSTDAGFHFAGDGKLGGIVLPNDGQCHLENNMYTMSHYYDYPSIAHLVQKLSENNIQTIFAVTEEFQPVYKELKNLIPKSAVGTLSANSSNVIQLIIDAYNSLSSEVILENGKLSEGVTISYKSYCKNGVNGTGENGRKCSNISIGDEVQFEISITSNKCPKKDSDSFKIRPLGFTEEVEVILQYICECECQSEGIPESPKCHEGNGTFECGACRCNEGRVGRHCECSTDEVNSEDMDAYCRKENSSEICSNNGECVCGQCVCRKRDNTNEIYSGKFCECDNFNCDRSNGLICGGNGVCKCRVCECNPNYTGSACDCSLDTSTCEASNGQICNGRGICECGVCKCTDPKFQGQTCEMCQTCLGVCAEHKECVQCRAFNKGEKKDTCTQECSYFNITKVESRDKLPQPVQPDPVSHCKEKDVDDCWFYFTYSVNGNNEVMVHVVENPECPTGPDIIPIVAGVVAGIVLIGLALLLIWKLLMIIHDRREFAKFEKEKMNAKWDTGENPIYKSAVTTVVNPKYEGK

For “recombinant laminin-10 (human α5β1γ1 heterotrimer, α5 chain with C-terminal FLAG epitope) (from UniProt P07942 22-1786; P11047 34-1609) (ligand)”, the inhibition of HT-1080 cell binding to r-laminin-10 by mAbs against either α3 or β1 was 80%.
